Measurements as given in publication PMC4239663, “Structural basis for extracellular cis and trans RPTPσ signal competition in synaptogenesis” (Nature Communications, 2014).
Substitutions are numbered along the chain they refer to. Names may count otherwise. “And” between values parts separate entries of the source, which are not always exact repeats. Equal values may be shown once. Blank lines part the entries; values can stand above or below the molecule they belong to.

Key:
[1] = biological target: human RPTPσ Ig1–3 (human)
[2] = biological target: human RPTPσ Ig1–3 R227A+R228A (R228A+R229A in human numbering), C-terminal Avitag (human); experiment: SPR; equilibrium; biotinylated human RPTPσ Ig1–3 (wild type or mutants) immobilized on streptavidin-coated CM5 chips, mouse TrkC LRRIg1 as analyte; 10 mM HEPES pH 7.5, 150 mM NaCl, 0.01% Tween 20, 25 °C
[3] = biological target: human RPTPσ Ig1–3 WT, C-terminal Avitag, immobilized (human); experiment: as above
[4] = biological target: chicken TrkC LRRIg1 2N, C-terminal Avitag, immobilized (chicken, UniProt Q91044 32-302, N163Q | N232Q | N259Q | N267Q | N294Q, biotin on the Avitag (enzymatic)); experiment: SPR
[5] = biological target: T1, mouse TrkC LRRIg1 (soluble) (mouse, UniProt Q6VNS1 32-302); experiment: SPR
T1 chain: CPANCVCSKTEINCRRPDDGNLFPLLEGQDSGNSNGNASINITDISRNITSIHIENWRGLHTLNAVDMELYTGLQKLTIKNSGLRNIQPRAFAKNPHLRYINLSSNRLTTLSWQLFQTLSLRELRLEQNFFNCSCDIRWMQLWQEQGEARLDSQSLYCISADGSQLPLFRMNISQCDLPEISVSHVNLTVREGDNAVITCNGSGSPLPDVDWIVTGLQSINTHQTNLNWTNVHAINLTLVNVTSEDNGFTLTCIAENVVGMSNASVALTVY

[6] = biological target: chicken RPTPσ Ig1–3 (chicken, UniProt F1NWE3 29-316); experiment: SPR; equilibrium; biotinylated chicken TrkC LRRIg1 variants immobilized on streptavidin-coated CM5 chips, chicken RPTPσ Ig1–3 as analyte; 10 mM HEPES pH 7.5, 150 mM NaCl, 0.01% Tween 20, 25 °C; 1 M MgCl2 regeneration for LRRIg1 2Q; settings: both partners purified
[7] = biological target: mouse TrkC LRRIg1, C-terminal Avitag, immobilized (mouse) (UniProt Q6VNS1); experiment: SPR; equilibrium; biotinylated mouse TrkC LRRIg1 (wild type or D240A+D242A) immobilized on streptavidin-coated CM5 chips, human RPTP proteins as analytes; 10 mM HEPES pH 7.5, 150 mM NaCl, 0.01% Tween 20, 25 °C; in Fig. 6a also with increasing HS or heparin-dp10
[8] = biological target: T2, mouse TrkC LRRIg1 2Q (Mus musculus); experiment: SPR
T2 chain: T1 chain with N37Q, N41Q

[9] = biological target: T3, mouse TrkC LRRIg1, C-terminal Avitag, immobilized (mouse, UniProt Q6VNS1 32-302, biotin on the Avitag (enzymatic)); experiment: SPR
T3 chain: T1 chain

[10] = biological target: T4, mouse NGL-3 Ecto (mouse, UniProt P0C192 39-574, biotin on the Avitag (enzymatic)); experiment: SPR
T4 chain: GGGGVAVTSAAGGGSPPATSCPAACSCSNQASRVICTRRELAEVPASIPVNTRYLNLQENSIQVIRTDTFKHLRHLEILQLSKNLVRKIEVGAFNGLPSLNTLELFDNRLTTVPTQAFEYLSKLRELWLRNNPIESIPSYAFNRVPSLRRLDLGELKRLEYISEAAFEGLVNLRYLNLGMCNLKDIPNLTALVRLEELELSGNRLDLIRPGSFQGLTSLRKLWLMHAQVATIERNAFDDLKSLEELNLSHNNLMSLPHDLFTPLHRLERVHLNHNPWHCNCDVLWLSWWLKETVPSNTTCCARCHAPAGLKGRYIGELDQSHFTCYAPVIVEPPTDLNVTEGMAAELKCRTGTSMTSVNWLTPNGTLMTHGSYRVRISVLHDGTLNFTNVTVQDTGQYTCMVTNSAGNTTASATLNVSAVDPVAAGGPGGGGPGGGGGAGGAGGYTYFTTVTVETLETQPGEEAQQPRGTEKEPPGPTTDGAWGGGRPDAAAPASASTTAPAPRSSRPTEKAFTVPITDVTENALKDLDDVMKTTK

induced presynaptic differentiation in rat hippocampal neurons co-cultured with COS-7 cells expressing mouse TrkC TM, with heparin-dp10 (30 μg/ml, ~10 μM) against mock [1]: 2 fold
Molecule: mouse TrkC LRRIg1, C-terminal Avitag, immobilized (from UniProt Q6VNS1 32-302) (domain or fragment)

Kd [2]: 7000 nM | Kd [3]: 1800 nM
Molecule: mouse TrkC LRRIg1 (soluble) (from UniProt Q6VNS1 32-302) (domain or fragment)

Kd [4]: 2500 nM
B1: chicken RPTPσ Ig1–3, C-terminal Avitag, immobilized (domain or fragment)
chain: ESPPVFIKKPVDQIGVSGGVASFVCQATGDPKPRVTWNKKGKKVNSQRFETIEFDESAGAVLRIQPLRTPRDENIYECVAQNPHGEVTVHAKLTVLREDQLPPGFPNIDMGPQLKVVERTRTATMLCAASGNPDPEITWFKDFLPVDPSTSNGRIKQLRSGGLQIESSEETDQGKYECVASNSAGVRYSSPANLYVRELREVRRVAPRFSILPVSHEIMPGGNVNITCVAVGSPMPYVKWMQGAEDLTPEDDMPVGRNVLELTDVKDSANYTCVAMSSLGVIEAVAQI
modifications: biotin on the Avitag (enzymatic)

Kd [5]: 4800 nM
B2: RPTPσ with the meB mini-exon inserted between R225 and V226 (domain or fragment)
chain: EEPPRFIKEPKDQIGVSGGVASFVCQATGDPKPRVTWNKKGKKVNSQRFETIEFDESAGAVLRIQPLRTPRDENVYECVAQNSVGEITVHAKLTVLREDQLPSGFPNIDMGPQLKVVERTRTATMLCAASGNPDPEITWFKDFLPVDPSASNGRIKQLRSGALQIESSEETDQGKYECVATNSAGVRYSSPANLYVRELREVRRVAPRFSILPMSHEIMPGGNVNITCVAVGSPMPYVKWMQGAEDLTPEDDMPVGRNVLELTDVKDSANYTCVAMSSLGVIEAVAQITVKSLPKA

Kd [4]: 2600 nM
B3: chicken RPTPσ Ig1-3 ΔK (protein)
chain: ESPPVFIKKPVDQIGVSGGVASFVCQATGDPKPRVTWNAAGAAVNSQRFETIEFDESAGAVLRIQPLRTPRDENIYECVAQNPHGEVTVHAKLTVLREDQLPPGFPNIDMGPQLKVVERTRTATMLCAASGNPDPEITWFKDFLPVDPSTSNGRIKQLRSGGLQIESSEETDQGKYECVASNSAGVRYSSPANLYVRVRRVAPRFSILPVSHEIMPGGNVNITCVAVGSPMPYVKWMQGAEDLTPEDDMPVGRNVLELTDVKDSANYTCVAMSSLGVIEAVAQITVKS

Kd [6]: 216 nM
B4: chicken TrkC LRRIg1 2N, C-terminal Avitag, immobilized (domain or fragment, UniProt Q91044 32-302, looked up)
chain: CPANCLCSKTDINCKKPDDGNLFPLLEGQDSGSSNGNTSINITDISRNITSIHIENWKNLQTLNAVDMELYTGLQRLTIRNSGLRNIQPRAFAKNPHLRYIDLSGNRLTTLSWQLFQTLRLFDLRLERNPFQCSCDIRWIQLWQEKGEANLQSQQLHCMNLDTAVILLRNMNITQCDLPEISVSHVNLTVREGENAVITCQGSGSPLPDVDWTVADLHSINTHQTNLQWTNVHAIQLTLVNVTSEDNGFLLTCIAENVVGMSQASVLLTVY
modifications: biotin on the Avitag (enzymatic)
notes: chicken TrkC LRRIg1, amino acids 32–302 of NCBI NM_205169.1, residues 63–77 re-added to LRRIg1cryst; not shown: Avitag (BirA recognition site), C-terminal, kept

Kd [6]: 38 nM
B5: chicken TrkC LRRIg1 2Q, C-terminal Avitag, immobilized (domain or fragment, UniProt Q91044 32-302, looked up)
chain: B4 chain with N37Q, N41Q
modifications: biotin on the Avitag (enzymatic)
notes: chicken TrkC LRRIg1, amino acids 32–302 of NCBI NM_205169.1, residues 63–77 re-added with N68Q+N72Q; not shown: Avitag (BirA recognition site), C-terminal, kept

Kd [7]: 258 nM | Kd [8]: 140 nM
B6: human RPTPσ Ig1–3 (domain or fragment)
chain: EEPPRFIKEPKDQIGVSGGVASFVCQATGDPKPRVTWNKKGKKVNSQRFETIEFDESAGAVLRIQPLRTPRDENVYECVAQNSVGEITVHAKLTVLREDQLPSGFPNIDMGPQLKVVERTRTATMLCAASGNPDPEITWFKDFLPVDPSASNGRIKQLRSGALQIESSEETDQGKYECVATNSAGVRYSSPANLYVRVRRVAPRFSILPMSHEIMPGGNVNITCVAVGSPMPYVKWMQGAEDLTPEDDMPVGRNVLELTDVKDSANYTCVAMSSLGVIEAVAQITVKSLPKA

Kd [5]: 2800 nM
B7: human RPTPσ Ig1–3 ΔK (K68A+K69A+K71A+K72A) (domain or fragment)
chain: B6 chain with K39A, K40A, K42A, K43A

Kd [5]: 580 nM and 551 nM
B8: human RPTPσ Ig1–3 WT, C-terminal Avitag, immobilized (domain or fragment)
chain: B6 chain
modifications: biotin on the Avitag (enzymatic)

Kd [9]: 1500 nM | Kd [10]: > 7300 nM | Kd [7]: 516 nM
B9: human RPTPσ Ecto (domain or fragment)
chain: EEPPRFIKEPKDQIGVSGGVASFVCQATGDPKPRVTWNKKGKKVNSQRFETIEFDESAGAVLRIQPLRTPRDENVYECVAQNSVGEITVHAKLTVLREDQLPSGFPNIDMGPQLKVVERTRTATMLCAASGNPDPEITWFKDFLPVDPSASNGRIKQLRSGALQIESSEETDQGKYECVATNSAGVRYSSPANLYVRVRRVAPRFSILPMSHEIMPGGNVNITCVAVGSPMPYVKWMQGAEDLTPEDDMPVGRNVLELTDVKDSANYTCVAMSSLGVIEAVAQITVKSLPKAPGTPMVTENTATSITITWDSGNPDPVSYYVIEYKSKSQDGPYQIKEDITTTRYSIGGLSPNSEYEIWVSAVNSIGQGPPSESVVTRTGEQAPASAPRNVQARMLSATTMIVQWEEPVEPNGLIRGYRVYYTMEPEHPVGNWQKHNVDDSLLTTVGSLLEDETYTVRVLAFTSVGDGPLSDPIQVKTQQGVPGQPMNLRAEARSETSITLSWSPPRQESIIKYELLFREGDHGREVGRTFDPTTSYVVEDLKPNTEYAFRLAARSPQGLGAFTPVVRQRTLQSISPKNFKVKMIMKTSVLLSWEFPDNYNSPTPYKIQYNGLTLDVDGRTTKKLITHLKPHTFYNFVLTNRGSSLGGLQQTVTAWTAFNLLNGKPSVAPKPDADGFIMVYLPDGQSPVPVQSYFIVMVPLRKSRGGQFLTPLGSPEDMDLEELIQDISRLQRRSLRHSRQLEVPRPYIAARFSVLPPTFHPGDQKQYGGFDNRGLEPGHRYVLFVLAVLQKSEPTFAASPFSDPFQLDNPDPQPIVDGEEG

Kd [6]: 4800 nM
B10: chicken TrkC LRRIg1cryst, C-terminal Avitag, immobilized (domain or fragment, UniProt Q91044 32-302, looked up)
chain: CPANCLCSKTDINCKKPDDGNLFPLLEGQDSRNITSIHIENWKNLQTLNAVDMELYTGLQRLTIRNSGLRNIQPRAFAKNPHLRYIDLSGNRLTTLSWQLFQTLRLFDLRLERNPFQCSCDIRWIQLWQEKGEANLQSQQLHCMNLDTAVILLRNMNITQCDLPEISVSHVNLTVREGENAVITCQGSGSPLPDVDWTVADLHSINTHQTNLQWTNVHAIQLTLVNVTSEDNGFLLTCIAENVVGMSQASVLLTVY
modifications: biotin on the Avitag (enzymatic)
notes: chicken TrkC LRRIg1, amino acids 32–302 of NCBI NM_205169.1, lacking residues 63–77; not shown: Avitag (BirA recognition site), C-terminal, kept
